Source: patent US20230295310A1 (ABCELLERA BIOLOGICS, published 2023)

Target: EGFR on HeLa cells (UniProt P00533 25-1210, limits assumed)
Assay: cell-based or functional assay

| X… HeLa EC50 | Binder | Max killing % |
| --- | --- | --- |
|  | GOMP001_bsAb_031 (bispecific antibody, human IgG1, kappa, L234A L235A) heavy 1: QVQLVQSGAEVKKPGASVKVSCKASGYTFTSHWMHWVRKAPGQGLEWIGEFNPSNGRTNYNEEFKSKATMTVDTSTNTAYMELSSLRSEDTAVYYCASRDYDYDGRYFDYWGQGTLVTVSSASTKGPSVFPLAPSSKSTSGGTAALGCLVADYFPEPVTVSWNSGALTSGVHTFPAVLQSSGLYSLSSVVTVPSSSLGTQTYICNVNHKPSNTKVDEKVEPKSCDKTHTCPPCPAPEAAGGPSVFLFPPKPKDTLMISRTPEVTCVVVDVSHEDPEVKFNWYVDGVEVHNAKTKPREEQYNSTYRVVSVLTVLHQDWLNGKEYKCKVSNKALPAPIEKTISKAKGQPREPQVYTLPPSREEMTDNQVSLTCLVKGFYPSDIAVEWESNGQPENNYKTTPPVLMSDGSFFLASKLTVDKSRWQQGNVFSCSVMHEALHNHYTQKSLSLSPG light 1: RIQMTQSPSSLSASVGDRVTITCSASSSVTYMYWYQDKPGKAPKLLIYDTSNLASGVPSRFSGSGSGTDYTFTISSLQPEDIATYYCQQWSSHIFTFGQGTKVEIKRTVAAPSVFIFPPSDKQLKSGTARVVCLLNNFYPREAKVQWKVDNALQSGNSQESVTEQDSKDSTYSLSSTLTLSKADYEKHKVYACEVTHQGLSSPVTKSFNRGEC heavy 2: QGQLVESGGGVVQPGRSLRLSCAASGFTFRGFGMHWVRYAPGKGLEWVAIIYYDGKNKYYADRVKGRFTISRDNSKNTLYLQMNSLRAEDTAVYYCAKGGGYNWFDPWGRGTLVTVSSASTKGPSVFPLAPSSKSTSGGTAALGCLVKDYFPEPVTVSWNSGALTSGVHTFPAVLQSSGLYSLSSVVTVPSSSLGTQTYICNVNHKPSNTKVDKKVEPKSCDKTHTCPPCPAPEAAGGPSVFLFPPKPKDTLMISRTPEVTCVVVDVSHEDPEVKFNWYVDGVEVHNAKTKPREEQYNSTYRVVSVLTVLHQDWLNGKEYKCKVSNKALPAPIEKTISKAKGQPRRPRVYTLPPSREEMTKNQVSLVCLVKGFYPSDIAVEWESNGQPENNYKTTPPVLDSDGSFFLYSVLTVDKSRWQQGNVFSCSVMHEALHNHYTQKSLSLSPG light 2: DIQMTQSPSSLSASVGDRVTITCRASQSISTYLNWYQRKPGDAPKLLIYSASSLQSGVPSRFSGSGSGTDFTLTISNLQPEDFAIYYCQRSYSPPFTFGPGTKLDIRRTVAAPSVFIFPPSDEQLKSGTASVVCLLNNFYPREAKVQWKVDNALQSGNSQESVTEQDSKDSTYSLSSTLTLSKADYEKHKVYACEVTHQGLSSPVTKSFNRGEC | 68.8% |
| 0.0331 nM | GOMP001_bsAb_038 (bispecific antibody, human IgG1, kappa, L234A L235A) heavy 1: EVQLVESGGVLVKTGGSLRLSCVASGFSFKKAWMNWVRKAPGKGLEWVGRIKRNSDGGAADYAAEVKDRFTLSRDDSKNTLYLQMNSLKTEDTAVYYCTTLDSSSWYVGYYYMDVWGKGTTVTVSSASTKGPSVFPLAPSSKSTSGGTAALGCLVADYFPEPVTVSWNSGALTSGVHTFPAVLQSSGLYSLSSVVTVPSSSLGTQTYICNVNHKPSNTKVDEKVEPKSCDKTHTCPPCPAPEAAGGPSVFLFPPKPKDTLMISRTPEVTCVVVDVSHEDPEVKFNWYVDGVEVHNAKTKPREEQYNSTYRVVSVLTVLHQDWLNGKEYKCKVSNKALPAPIEKTISKAKGQPREPQVYTLPPSREEMTDNQVSLTCLVKGFYPSDIAVEWESNGQPENNYKTTPPVLMSDGSFFLASKLTVDKSRWQQGNVFSCSVMHEALHNHYTQKSLSLSPG light 1: RIHMTQSPSSVSASLGDRVTFTCRASQNINNWLAWYQDKPGKAPKLLIYTASSLQSGVPSRFSGSGSGTDFTLTISSLQPDDFATYYCQQAHSLPITFGQGTRLGIKRTVAAPSVFIFPPSDKQLKSGTARVVCLLNNFYPREAKVQWKVDNALQSGNSQESVTEQDSKDSTYSLSSTLTLSKADYEKHKVYACEVTHQGLSSPVTKSFNRGEC heavy 2: QVQLVQSGAEVKKPGASVKVSCKASGYTFTSHWMHWVRYAPGQGLEWIGEFNPSNGRTNYNEKFKSKATMTVDTSTNTAYMELSSLRSEDTAVYYCASRDYDYDGRYFDYWGRGTLVTVSSASTKGPSVFPLAPSSKSTSGGTAALGCLVKDYFPEPVTVSWNSGALTSGVHTFPAVLQSSGLYSLSSVVTVPSSSLGTQTYICNVNHKPSNTKVDKKVEPKSCDKTHTCPPCPAPEAAGGPSVFLFPPKPKDTLMISRTPEVTCVVVDVSHEDPEVKFNWYVDGVEVHNAKTKPREEQYNSTYRVVSVLTVLHQDWLNGKEYKCKVSNKALPAPIEKTISKAKGQPRRPRVYTLPPSREEMTKNQVSLVCLVKGFYPSDIAVEWESNGQPENNYKTTPPVLDSDGSFFLYSVLTVDKSRWQQGNVFSCSVMHEALHNHYTQKSLSLSPG light 2: DIQMTQSPSSLSASVGDRVTITCSASSSVTYMYWYQRKPGDAPKLLIYDTSNLASGVPSRFSGSGSGTDYTFTISSLQPEDIATYYCQQWSSHIFTFGQGTKVEIKRTVAAPSVFIFPPSDEQLKSGTASVVCLLNNFYPREAKVQWKVDNALQSGNSQESVTEQDSKDSTYSLSSTLTLSKADYEKHKVYACEVTHQGLSSPVTKSFNRGEC | 93.6% |
| 0.174 nM | GOMP001_bsAb_037 (bispecific antibody, human IgG1, kappa, L234A L235A) heavy 1: QVQLVQSGAEVKKPGASVKVSCKASGYTFTSHWMHWVRKAPGQGLEWIGEFNPSNGRTNYNEEFKSKATMTVDTSTNTAYMELSSLRSEDTAVYYCASRDYDYDGRYFDYWGQGTLVTVSSASTKGPSVFPLAPSSKSTSGGTAALGCLVADYFPEPVTVSWNSGALTSGVHTFPAVLQSSGLYSLSSVVTVPSSSLGTQTYICNVNHKPSNTKVDEKVEPKSCDKTHTCPPCPAPEAAGGPSVFLFPPKPKDTLMISRTPEVTCVVVDVSHEDPEVKFNWYVDGVEVHNAKTKPREEQYNSTYRVVSVLTVLHQDWLNGKEYKCKVSNKALPAPIEKTISKAKGQPREPQVYTLPPSREEMTDNQVSLTCLVKGFYPSDIAVEWESNGQPENNYKTTPPVLMSDGSFFLASKLTVDKSRWQQGNVFSCSVMHEALHNHYTQKSLSLSPG light 1: RIQMTQSPSSLSASVGDRVTITCSASSSVTYMYWYQDKPGKAPKLLIYDTSNLASGVPSRFSGSGSGTDYTFTISSLQPEDIATYYCQQWSSHIFTFGQGTKVEIKRTVAAPSVFIFPPSDKQLKSGTARVVCLLNNFYPREAKVQWKVDNALQSGNSQESVTEQDSKDSTYSLSSTLTLSKADYEKHKVYACEVTHQGLSSPVTKSFNRGEC heavy 2: EVQLVESGGVLVKTGGSLRLSCVASGFSFKKAWMNWVRYAPGKGLEWVGRIKRNSDGGAADYAARVKDRFTLSRDDSKNTLYLQMNSLKTEDTAVYYCTTLDSSSWYVGYYYMDVWGRGTTVTVSSASTKGPSVFPLAPSSKSTSGGTAALGCLVKDYFPEPVTVSWNSGALTSGVHTFPAVLQSSGLYSLSSVVTVPSSSLGTQTYICNVNHKPSNTKVDKKVEPKSCDKTHTCPPCPAPEAAGGPSVFLFPPKPKDTLMISRTPEVTCVVVDVSHEDPEVKFNWYVDGVEVHNAKTKPREEQYNSTYRVVSVLTVLHQDWLNGKEYKCKVSNKALPAPIEKTISKAKGQPRRPRVYTLPPSREEMTKNQVSLVCLVKGFYPSDIAVEWESNGQPENNYKTTPPVLDSDGSFFLYSVLTVDKSRWQQGNVFSCSVMHEALHNHYTQKSLSLSPG light 2: DIHMTQSPSSVSASLGDRVTFTCRASQNINNWLAWYQRKPGDAPKLLIYTASSLQSGVPSRFSGSGSGTDFTLTISSLQPDDFATYYCQQAHSLPITFGQGTRLGIKRTVAAPSVFIFPPSDEQLKSGTASVVCLLNNFYPREAKVQWKVDNALQSGNSQESVTEQDSKDSTYSLSSTLTLSKADYEKHKVYACEVTHQGLSSPVTKSFNRGEC | 83.6% |
| 0.061 nM | GOMP001_bsAb_032 (bispecific antibody, human IgG1, kappa, L234A L235A) heavy 1: QGQLVESGGGVVQPGRSLRLSCAASGFTFRGFGMHWVRKAPGKGLEWVAIIYYDGKNKYYADEVKGRFTISRDNSKNTLYLQMNSLRAEDTAVYYCAKGGGYNWFDPWGQGTLVTVSSASTKGPSVFPLAPSSKSTSGGTAALGCLVADYFPEPVTVSWNSGALTSGVHTFPAVLQSSGLYSLSSVVTVPSSSLGTQTYICNVNHKPSNTKVDEKVEPKSCDKTHTCPPCPAPEAAGGPSVFLFPPKPKDTLMISRTPEVTCVVVDVSHEDPEVKFNWYVDGVEVHNAKTKPREEQYNSTYRVVSVLTVLHQDWLNGKEYKCKVSNKALPAPIEKTISKAKGQPREPQVYTLPPSREEMTDNQVSLTCLVKGFYPSDIAVEWESNGQPENNYKTTPPVLMSDGSFFLASKLTVDKSRWQQGNVFSCSVMHEALHNHYTQKSLSLSPG light 1: RIQMTQSPSSLSASVGDRVTITCRASQSISTYLNWYQDKPGKAPKLLIYSASSLQSGVPSRFSGSGSGTDFTLTISNLQPEDFAIYYCQRSYSPPFTFGPGTKLDIRRTVAAPSVFIFPPSDKQLKSGTARVVCLLNNFYPREAKVQWKVDNALQSGNSQESVTEQDSKDSTYSLSSTLTLSKADYEKHKVYACEVTHQGLSSPVTKSFNRGEC heavy 2: QVQLVQSGAEVKKPGASVKVSCKASGYTFTSHWMHWVRYAPGQGLEWIGEFNPSNGRTNYNEKFKSKATMTVDTSTNTAYMELSSLRSEDTAVYYCASRDYDYDGRYFDYWGRGTLVTVSSASTKGPSVFPLAPSSKSTSGGTAALGCLVKDYFPEPVTVSWNSGALTSGVHTFPAVLQSSGLYSLSSVVTVPSSSLGTQTYICNVNHKPSNTKVDKKVEPKSCDKTHTCPPCPAPEAAGGPSVFLFPPKPKDTLMISRTPEVTCVVVDVSHEDPEVKFNWYVDGVEVHNAKTKPREEQYNSTYRVVSVLTVLHQDWLNGKEYKCKVSNKALPAPIEKTISKAKGQPRRPRVYTLPPSREEMTKNQVSLVCLVKGFYPSDIAVEWESNGQPENNYKTTPPVLDSDGSFFLYSVLTVDKSRWQQGNVFSCSVMHEALHNHYTQKSLSLSPG light 2: DIQMTQSPSSLSASVGDRVTITCSASSSVTYMYWYQRKPGDAPKLLIYDTSNLASGVPSRFSGSGSGTDYTFTISSLQPEDIATYYCQQWSSHIFTFGQGTKVEIKRTVAAPSVFIFPPSDEQLKSGTASVVCLLNNFYPREAKVQWKVDNALQSGNSQESVTEQDSKDSTYSLSSTLTLSKADYEKHKVYACEVTHQGLSSPVTKSFNRGEC | 98.1% |
